# According to publication PMC6949295 (2020):
# B1: Exo70-Flag [rat] / HA-Sec6 [not stated] (parent)
# chain 1: MIPPQEASARRREIEDKLKQEEETLSFIRDSLEKSDQLTKNMVSILSSFESRLMKLENSIIPVHKQTENLQRLQENVEKTLSCLDHVISYYHVASDTEKIIREGPTGRLEEYLGSMAKIQKAVEYFQDNSPDSPELNKVKLLFERGKESLESEFRSLMTRHSKVISPVLVLDLISADDELEVQEDVVLEHLPESVLQDVIRISRWLVEYGRNQDFMNVYYQIRSSQLDRSIKGLKEHFRKSSSSSGVPYSPAIPNKRKDTPTKKPIKRPGRDDMLDVETDAYIHCVSAFVRLAQSEYQLLMGIIPEHHQKKTFDSLIQDALDGLMLEGENIVSAARKAIIRHDFSTVLTVFPILRHLKQTKPEFDQVLQGTAASTKNKLPGLITSMETIGAKALEDFADNIKNDPDKEYNMPKDGTVHELTSNAILFLQQLLDFQETAGAMLASQETSSSATSYNSEFSKRLLSTYICKVLGNLQLNLLSKSKVYEDPALSAIFLHNNYNYILKSLEKSELIQLVAVTQKTAERSYREHIEQQIQTYQRSWLKVTDYIAEKNLPVFQPGVKLRDKERQMIKERFKGFNDGLEELCKIQKAWAIPDTEQRDKIRQAQKSIVKETYGAFLHRYSSVPFTKNPEKYIKYRVEQVGDMIDRLFDTSA
# chain 2: MCKDSACFSTMKETDLEAVATAVQRVAGMLQRPDQLDKVEQYRRREARKKASVEARLKAAIQSQLDGVRTGLSQLHNALNDVKDIQQSLADVSKDWRQSINTIESLKDVKDAVVQHSQLAAAVENLKNIFSVPEIVRETQDLIEQGALLQAHRKLMDLECSRDGLMCEQYRMDSGNKRDMTLIHGYFGSTQGLSDELAKQLWMVLQRSLVTVRRDPTLLVSVVRIIEREEKIDRRILDRKKQTGFVPPGRPKNWKEKMFAVLDRTVTTRIEGTQADTRESDKMWLVRHLEIIRKYVLDDLVIAKNLLVQCFPPHYDIFKNLLSMYHQALSIRMQDLASEDLEANEIVSLLTWVLNTYTSAEMMGNVELAPEVDVNALEPLLSPNVVSELLDTYMSTLTSNIIAWLRKALETDKKDWSKETEPEADQDGYYQTTLPAIVFQMFEQNLQVAAQISEDLKTKVLVLCLQQMNSFLSRYKEEAQLYKEEHLRNRQHPHCYVQYMVAIINNCQTFKESIISLKRKYLKPETEESLCQSQPSMDGILDAIAKEGCSSLLEEVFLDLEQHLNELMTKKWMLGSNAVDIICVTVEDYFNDFAKIKKPYKKRMTAEAHRRVVVEYLRAVMQKRISFRSAEERKEGAEKMVREAEQLRFLFRKLASGFGEDADGHCDTIVAVAEVIKLTDPSLLYLEVSTLVSKYPDIRDDHIGALLALRGDASRDMKQTIMETLEQGPMQASPNYVPIFQEIVVPSLNVAKLLK
# B2: Exo70-Flag [rat] / HA-Sec8 [not stated] (parent)
# chain 1: B1 chain 1
# chain 2: MAAEAAGGKYRSTVSKSKDPSGLLISVIRTLSTSDDVEDRENEKGRLEEAYEKCDRDLDELIVQHYTELTTAIRTYQSITERITNSRNKIKQVKENLLSCKMLLHCKRDELRKLWIEGIEHKHVLNLLDEIENIKQVPQKLEQCMASKHYLSATDMLVSAVESLEGPLLQVEGLSDLRLELHSKKMNLHLVLIEELHRHLYIKSTSRVVQRNKEKGKMSSHGKDASPGPLIDVSNISTPRKFLDATQYSAAGSSSVREMNLQDIKEDLDCDPEENSTLFMGILIQGLARLKKIPETVKAIKERLEQELKQIVKRSTTQVADSAYQRGESLTVDNQPRLLLELLELLFDKFNAVASAHSIVLGYLQDSVGTQPTQQEEIKLYDMADVWVKIQDVLQMLLTEYLDMKNTRTASEPSAQLSYASTGREFAAFFAKKKPQRPKNSLFKFESSSHAISMSAYLREQRRELYSRSGELQGGPDDNLIEGGGTKFVCKPGARNITVIFHPLLRFIQEIEHALGLGPAKQCLLREFLTIYIKNIFLNQVLTEINKEIEGVTKTSDPLKILANADTMKVLGVQRPLLQSTIIVEKTVQDLMNLMHDLSAYSDQFLNMVCVKLQEYKDTCSTAYRGIVQSEEKLVISASWAKDDDISRLLKSLPNWTNMAQPKQLRPKREEEEDFIRAAFGKESEVLIGNLGDKLIPPQDILRDVSDLKALANMHESLEWLAGRTKSAFSSLSASQMLSPAQESHVNMDLPPVSEQIMQTLSELAKSFQDMADRCLLVLHLEVRVHCFHYLIPLAKEGNYAIVANVESMDYDPLVVKLNKDISAMEEAMSASLQQHKFQYIFEGLGHLISCILINGAQYFRRISESGIKKMCRNIFVLQQNLTNITMSREADLDFARQYYEMLYNTADELLNLVVDQGVKYTELEYIHALTLLHRSQTGVGDQTTQNTRLQRLKEIICEQAAIKQATKDKKITTV
# B3: Exo70 wild type, HA-tagged and Flag-tagged copies co-expressed [rat] / itself (parent)
# chain: B1 chain 1
# Variants of: B1
# Assay: co-immunoprecipitation (IP: HA, blot: Flag)
# Details: with HA-Sec6; 293T cells; parent: 1
row,Variant,response (relative band intensity)
1,chain 1 S47D S59D S89D,0.31

# Variants of: B2
# Assay: co-immunoprecipitation (IP: HA, blot: Flag)
# Details: with HA-Sec8; 293T cells; parent: 1.03
row,Variant,response (relative band intensity)
1,chain 1 S47D S59D S89D,0.45

# Variants of: B3
# Assay: co-immunoprecipitation (IP: HA, blot: Flag)
# Details: with itself; 293T cells; with Myc-ULK1 co-expressed; parent: 0.35
row,Variant,response (relative band intensity)
1,chain 1 S59A,1.16
2,chain 1 S47A S59A S89A,2.44
3,chain 1 S47A,0.87
4,chain 1 S89A,1

# Same assay, conditions: with itself; 293T cells; without Myc-ULK1; parent: 1
row,Variant,response (relative band intensity)
1,chain 1 S59A,1.31
2,chain 1 S47A S59A S89A,1.49
3,chain 1 S47A,1
4,chain 1 S89A,1.17

# Same assay, conditions: with itself; 293T cells; parent: 1
row,Variant,response (relative band intensity)
1,chain 1 S59D S89D,0.41
2,chain 1 S89D,0.46
3,chain 1 S47D S89D,0.18
4,chain 1 S47D S59D S89D,0.03
